Test results from publication PMC7335907.

Target: small laccase from Streptomyces coelicolor (SLAC), T1 copper-depleted mutant C288S (SLAC-T1D) (Streptomyces coelicolor) (UniProt Q9XAL8)
Test: SEC-MALS

Substance: small laccase from Streptomyces coelicolor (SLAC), T1 copper-depleted mutant C288S (SLAC-T1D) (from UniProt Q9XAL8 1-343) (enzyme)
- stoichiometry N: 3
